B1: Tetratricopeptide repeat protein 14 (Homo sapiens), Q96N46 (parent)
chain: MDRDLLRQSLNCHGSSLLSLLRSEQQDNPHFRSLLGSAAEPARGPPPQHPLQGRKEKRVDNIEIQKFISKKADLLFALSWKSDAPATSEINEDSEDHYAIMPPLEQFMEIPSMDRRELFFRDIERGDIVIGRISSIREFGFFMVLICLGSGIMRDIAHLEITALCPLRDVPSHSNHGDPLSYYQTGDIIRAGIKDIDRYHEKLAVSLYSSSLPPHLSGIKLGVISSEELPLYYRRSVELNSNSLESYENVMQSSLGFVNPGVVEFLLEKLGIDESNPPSLMRGLQSKNFSEDDFASALRKKQSASWALKCVKIGVDYFKVGRHVDAMNEYNKALEIDKQNVEALVARGALYATKGSLNKAIEDFELALENCPTHRNARKYLCQTLVERGGQLEEEEKFLNAESYYKKALALDETFKDAEDALQKLHKYMQKSLELREKQAEKEEKQKTKKIETSAEKLRKLLKEEKRLKKKRRKSTSSSSVSSADESVSSSSSSSSSGHKRHKKHKRNRSESSRSSRRHSSRASSNQIDQNRKDECYPVPANTSASFLNHKQEVEKLLGKQDRLQYEKTQIKEKDRCPLSSSSLEIPDDFGGRSEDPRDFYNSYKTQAGSSKTEKPYKSERHFSSRRNSSDSFCRNSEDKIYGYRRFEKDIEGRKEHYRRWEPGSVRHSTSPASSEYSWKSVEKYKKYAHSGSRDFSRHEQRYRLNTNQGEYEREDNYGEDIKTEVPEEDALSSKEHSESSVKKNLPQNLLNIFNQIAEFEKEKGNKSKN
B2: Calcium-binding and coiled-coil domain-containing protein 2 (Homo sapiens), Q13137 (parent)
chain: MEETIKDPPTSAVLLDHCHFSQVIFNSVEKFYIPGGDVTCHYTFTQHFIPRRKDWIGIFRVGWKTTREYYTFMWVTLPIDLNNKSAKQQEVQFKAYYLPKDDEYYQFCYVDEDGVVRGASIPFQFRPENEEDILVVTTQGEVEEIEQHNKELCKENQELKDSCISLQKQNSDMQAELQKKQEELETLQSINKKLELKVKEQKDYWETELLQLKEQNQKMSSENEKMGIRVDQLQAQLSTQEKEMEKLVQGDQDKTEQLEQLKKENDHLFLSLTEQRKDQKKLEQTVEQMKQNETTAMKKQQELMDENFDLSKRLSENEIICNALQRQKERLEGENDLLKRENSRLLSYMGLDFNSLPYQVPTSDEGGARQNPGLAYGNPYSGIQESSSPSPLSIKKCPICKADDICDHTLEQQQMQPLCFNCPICDKIFPATEKQIFEDHVFCHSL
partner: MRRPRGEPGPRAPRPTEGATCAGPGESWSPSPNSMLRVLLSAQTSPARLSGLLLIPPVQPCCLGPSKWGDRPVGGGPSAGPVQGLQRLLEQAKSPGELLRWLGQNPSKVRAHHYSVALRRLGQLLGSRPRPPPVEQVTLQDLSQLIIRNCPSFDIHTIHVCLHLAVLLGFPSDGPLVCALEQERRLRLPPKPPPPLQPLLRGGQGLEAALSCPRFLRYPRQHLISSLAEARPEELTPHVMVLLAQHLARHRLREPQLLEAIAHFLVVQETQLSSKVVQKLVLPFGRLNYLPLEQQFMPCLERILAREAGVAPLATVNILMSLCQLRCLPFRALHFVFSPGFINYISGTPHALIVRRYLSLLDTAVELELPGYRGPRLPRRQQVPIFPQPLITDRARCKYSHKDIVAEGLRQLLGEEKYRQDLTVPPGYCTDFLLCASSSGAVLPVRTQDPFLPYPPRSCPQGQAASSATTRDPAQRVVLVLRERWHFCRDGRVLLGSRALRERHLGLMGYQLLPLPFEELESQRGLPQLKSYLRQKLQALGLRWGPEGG
B3: Nanos homolog 2 (Homo sapiens), P60321 (parent)
chain: MQLPPFDMWKDYFNLSQVVWALIASRGQRLETQEIEEPSPGPPLGQDQGLGAPGANGGLGTLCNFCKHNGESRHVYSSHQLKTPDGVVVCPILRHYVCPVCGATGDQAHTLKYCPLNGGQQSLYRRSGRNSAGRRVKR
B4: Low-density lipoprotein receptor class A domain-containing protein 1 (Homo sapiens), Q5T700 (parent)
chain: MNKVFPQGENGYTAAESKAHPGGEAGGGHLCCSRRGACLSASLLLLLATVAALIALVTILGLPSCTPGAQACITLTNRTGFLCHDQRSCIPASGVCDGVRTCTHGEDEDESLCRDVPQSLPHFLVAHCGDPASWIYSDQKCDGTNNCGDCSDELSPVTVCPPCGPGWWRCPSTFFKYCDCIPRHLCRDHVQHCSDWSDEYACPGP
partner: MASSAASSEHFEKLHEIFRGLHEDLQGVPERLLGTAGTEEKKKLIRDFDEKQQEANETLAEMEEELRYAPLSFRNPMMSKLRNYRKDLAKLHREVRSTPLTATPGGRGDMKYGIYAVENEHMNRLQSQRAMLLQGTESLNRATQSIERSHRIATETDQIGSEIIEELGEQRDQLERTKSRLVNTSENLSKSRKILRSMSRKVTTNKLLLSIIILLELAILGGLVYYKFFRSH
B5: Conserved oligomeric Golgi complex subunit 2 (Homo sapiens), Q14746 (parent)
chain: MEKSRMNLPKGPDTLCFDKDEFMKEDFDVDHFVSDCRKRVQLEELRDDLELYYKLLKTAMVELINKDYADFVNLSTNLVGMDKALNQLSVPLGQLREEVLSLRSSVSEGIRAVDERMSKQEDIRKKKMCVLRLIQVIRSVEKIEKILNSQSSKETSALEASSPLLTGQILERIATEFNQLQFHAVQSKGMPLLDKVRPRIAGITAMLQQSLEGLLLEGLQTSDVDIIRHCLRTYATIDKTRDAEALVGQVLVKPYIDEVIIEQFVESHPNGLQVMYNKLLEFVPHHCRLLREVTGGAISSEKGNTVPGYDFLVNSVWPQIVQGLEEKLPSLFNPGNPDAFHEKYTISMDFVRRLERQCGSQASVKRLRAHPAYHSFNKKWNLPVYFQIRFREIAGSLEAALTDVLEDAPAESPYCLLASHRTWSSLRRCWSDEMFLPLLVHRLWRLTLQILARYSVFVNELSLRPISNESPKEIKKPLVTGSKEPSITQGNTEDQGSGPSETKPVVSISRTQLVYVVADLDKLQEQLPELLEIIKPKLEMIGFKNFSSISAALEDSQSSFSACVPSLSSKIIQDLSDSCFGFLKSALEVPRLYRRTNKEVPTTASSYVDSALKPLFQLQSGHKDKLKQAIIQQWLEGTLSESTHKYYETVSDVLNSVKKMEESLKRLKQARKTTPANPVGPSGGMSDDDKIRLQLALDVEYLGEQIQKLGLQASDIKSFSALAELVAAAKDQATAEQP
B6: Sorting nexin-15 (Homo sapiens), Q9NRS6 (parent)
chain: MSRQAKDDFLRHYTVSDPRTHPKGYTEYKVTAQFISKKDPEDVKEVVVWKRYSDFRKLHGDLAYTHRNLFRRLEEFPAFPRAQVFGRFEASVIEERRKGAEDLLRFTVHIPALNNSPQLKEFFRGGEVTRPLEVSRDLHILPPPLIPTPPPDDPRLSQLLPAERRGLEELEVPVDPPPSSPAQEALDLLFNCESTEEASGSPARGPLTEAELALFDPFSKEEGAAPSPTHVAELATMEVESARLDQEPWEPGGQEEEEDGEGGPTPAYLSQATELITQALRDEKAGAYAAALQGYRDGVHVLLQGVPSDPLPARQEGVKKKAAEYLKRAEEILRLHLSQLPP
B7: Proton-coupled zinc antiporter SLC30A2 (Homo sapiens), Q9BRI3 (parent)
chain: MEAKEKQHLLDARPAIRSYTGSLWQEGAGWIPLPRPGLDLQAIELAAQSNHHCHAQKGPDSHCDPKKGKAQRQLYVASAICLLFMIGEVVGGYLAHSLAVMTDAAHLLTDFASMLISLFSLWMSSRPATKTMNFGWQRAEILGALVSVLSIWVVTGVLVYLAVERLISGDYEIDGGTMLITSGCAVAVNIIMGLTLHQSGHGHSHGTTNQQEENPSVRAAFIHVIGDFMQSMGVLVAAYILYFKPEYKYVDPICTFVFSILVLGTTLTILRDVILVLMEGTPKGVDFTAVRDLLLSVEGVEALHSLHIWALTVAQPVLSVHIAIAQNTDAQAVLKTASSRLQGKFHFHTVTIQIEDYSEDMKDCQACQGPSD
B8: Homeobox protein PKNOX1 (Homo sapiens), P55347 (parent)
chain: MMATQTLSIDSYQDGQQMQVVTELKTEQDPNCSEPDAEGVSPPPVESQTPMDVDKQAIYRHPLFPLLALLFEKCEQSTQGSEGTTSASFDVDIENFVRKQEKEGKPFFCEDPETDNLMVKAIQVLRIHLLELEKVNELCKDFCSRYIACLKTKMNSETLLSGEPGSPYSPVQSQQIQSAITGTISPQGIVVPASALQQGNVAMATVAGGTVYQPVTVVTPQGQVVTQTLSPGTIRIQNSQLQLQLNQDLSILHQDDGSSKNKRGVLPKHATNVMRSWLFQHIGHPYPTEDEKKQIAAQTNLTLLQVNNWFINARRRILQPMLDSSCSETPKTKKKTAQNRPVQRFWPDSIASGVAQPPPSELTMSEGAVVTITTPVNMNVDSLQSLSSDGATLAVQQVMMAGQSEDESVDSTEEDAGALAPAHISGLVLENSDSLQ
partner: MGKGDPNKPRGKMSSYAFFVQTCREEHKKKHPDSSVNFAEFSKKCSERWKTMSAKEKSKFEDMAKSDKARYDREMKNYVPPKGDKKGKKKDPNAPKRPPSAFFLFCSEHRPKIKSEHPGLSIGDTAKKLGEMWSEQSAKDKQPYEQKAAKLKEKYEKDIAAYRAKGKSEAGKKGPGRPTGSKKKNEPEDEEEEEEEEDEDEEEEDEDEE
B9: Homeobox protein VENTX (Homo sapiens), O95231 (parent)
chain: MRLSSSPPRGPQQLSSFGSVDWLSQSSCSGPTHTPRPADFSLGSLPGPGQTSGAREPPQAVSIKEAAGSSNLPAPERTMAGLSKEPNTLRAPRVRTAFTMEQVRTLEGVFQHHQYLSPLERKRLAREMQLSEVQIKTWFQNRRMKHKRQMQDPQLHSPFSGSLHAPPAFYSTSSGLANGLQLLCPWAPLSGPQALMLPPGSFWGLCQVAQEALASAGASCCGQPLASHPPTPGRPSLGPALSTGPRGLCAMPQTGDAF
partner: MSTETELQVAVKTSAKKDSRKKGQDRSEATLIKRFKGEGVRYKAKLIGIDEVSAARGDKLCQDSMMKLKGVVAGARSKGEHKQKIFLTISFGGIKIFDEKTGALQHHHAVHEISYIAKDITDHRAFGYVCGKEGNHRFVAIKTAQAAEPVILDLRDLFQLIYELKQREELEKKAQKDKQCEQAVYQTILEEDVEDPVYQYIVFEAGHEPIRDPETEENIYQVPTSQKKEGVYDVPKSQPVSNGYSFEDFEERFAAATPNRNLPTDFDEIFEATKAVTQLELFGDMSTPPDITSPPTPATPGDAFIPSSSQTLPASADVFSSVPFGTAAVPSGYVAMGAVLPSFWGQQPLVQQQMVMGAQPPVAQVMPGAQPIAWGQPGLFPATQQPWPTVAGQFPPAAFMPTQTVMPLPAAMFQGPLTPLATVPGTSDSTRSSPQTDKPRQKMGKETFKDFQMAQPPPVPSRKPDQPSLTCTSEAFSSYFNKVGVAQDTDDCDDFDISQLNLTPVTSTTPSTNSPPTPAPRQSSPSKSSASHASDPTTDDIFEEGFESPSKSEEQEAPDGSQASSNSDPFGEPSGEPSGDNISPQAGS

Variants of: B1
Details: with cep70_human CEP70, Q8NHQ1
cep70_human CEP70, Q8NHQ1, sequence (Q8NHQ1 whole entry): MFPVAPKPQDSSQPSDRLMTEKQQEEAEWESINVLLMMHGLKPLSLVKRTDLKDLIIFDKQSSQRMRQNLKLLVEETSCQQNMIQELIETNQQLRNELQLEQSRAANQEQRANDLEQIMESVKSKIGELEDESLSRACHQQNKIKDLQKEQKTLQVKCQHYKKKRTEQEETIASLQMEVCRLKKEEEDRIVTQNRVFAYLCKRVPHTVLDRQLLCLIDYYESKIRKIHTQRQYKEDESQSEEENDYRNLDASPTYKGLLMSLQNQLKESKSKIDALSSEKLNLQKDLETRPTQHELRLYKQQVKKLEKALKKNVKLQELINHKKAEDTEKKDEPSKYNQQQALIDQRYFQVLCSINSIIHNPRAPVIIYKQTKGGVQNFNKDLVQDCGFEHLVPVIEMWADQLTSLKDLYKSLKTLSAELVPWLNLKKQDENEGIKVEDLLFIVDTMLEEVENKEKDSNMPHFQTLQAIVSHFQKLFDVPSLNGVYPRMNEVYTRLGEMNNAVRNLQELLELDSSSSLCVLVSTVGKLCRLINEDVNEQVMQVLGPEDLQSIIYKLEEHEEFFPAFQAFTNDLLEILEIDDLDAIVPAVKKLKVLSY
With S697G the “effect of a mutation on the interaction” value was “with no effect”. For E486Q, the “effect of a mutation on the interaction” value was “with no effect”.

Variants of: B2
Details: with fastk_human FASTK
In the case of V248A, the “effect of a mutation on the interaction” value is reported as “with no effect”.

Variants of: B3
Details: with magac_human MAGEA12, P43365
magac_human MAGEA12, P43365, sequence (P43365 whole entry): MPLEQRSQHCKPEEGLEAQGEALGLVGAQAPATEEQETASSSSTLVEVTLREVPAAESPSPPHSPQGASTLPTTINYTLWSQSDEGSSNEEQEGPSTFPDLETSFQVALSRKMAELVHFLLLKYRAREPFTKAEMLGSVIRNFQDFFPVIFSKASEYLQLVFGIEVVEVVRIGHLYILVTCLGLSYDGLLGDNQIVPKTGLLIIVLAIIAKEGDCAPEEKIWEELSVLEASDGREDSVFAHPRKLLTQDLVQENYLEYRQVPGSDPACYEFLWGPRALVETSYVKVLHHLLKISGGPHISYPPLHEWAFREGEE
With R73C the “effect of a mutation on the interaction” value was “with no effect”. In the case of F13L, the “effect of a mutation on the interaction” value is reported as “with no effect”. In the case of R26Q, the “effect of a mutation on the interaction” value is reported as “with no effect”. For H68Q, the “effect of a mutation on the interaction” value was “with no effect”.

Variants of: B3
Details: with ccdb1_human CCNDBP1, O95273
ccdb1_human CCNDBP1, O95273, sequence (O95273 whole entry): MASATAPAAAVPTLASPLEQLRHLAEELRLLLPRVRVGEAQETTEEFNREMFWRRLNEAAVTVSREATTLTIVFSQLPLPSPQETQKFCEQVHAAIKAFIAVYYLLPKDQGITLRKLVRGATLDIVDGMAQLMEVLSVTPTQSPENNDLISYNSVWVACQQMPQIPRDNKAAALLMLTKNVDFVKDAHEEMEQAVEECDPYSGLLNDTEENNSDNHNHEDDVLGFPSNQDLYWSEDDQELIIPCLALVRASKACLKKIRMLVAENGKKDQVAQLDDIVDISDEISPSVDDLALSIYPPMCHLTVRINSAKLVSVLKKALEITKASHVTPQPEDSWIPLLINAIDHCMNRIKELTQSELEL
With R73C the “effect of a mutation on the interaction” value was “with no effect”. F13L was tested, and the “effect of a mutation on the interaction” value was “with no effect”. For R26Q, the “effect of a mutation on the interaction” value was “with no effect”. In the case of H68Q, the “effect of a mutation on the interaction” value is reported as “with no effect”.

Variants of: B4
Details: with vti1b_human VTI1B
For E108K, the “effect of a mutation on the interaction” value was “with no effect”.

Variants of: B5
Details: with mtus2_human MTUS2, Q5JR59
mtus2_human MTUS2, Q5JR59, sequence (Q5JR59 whole entry): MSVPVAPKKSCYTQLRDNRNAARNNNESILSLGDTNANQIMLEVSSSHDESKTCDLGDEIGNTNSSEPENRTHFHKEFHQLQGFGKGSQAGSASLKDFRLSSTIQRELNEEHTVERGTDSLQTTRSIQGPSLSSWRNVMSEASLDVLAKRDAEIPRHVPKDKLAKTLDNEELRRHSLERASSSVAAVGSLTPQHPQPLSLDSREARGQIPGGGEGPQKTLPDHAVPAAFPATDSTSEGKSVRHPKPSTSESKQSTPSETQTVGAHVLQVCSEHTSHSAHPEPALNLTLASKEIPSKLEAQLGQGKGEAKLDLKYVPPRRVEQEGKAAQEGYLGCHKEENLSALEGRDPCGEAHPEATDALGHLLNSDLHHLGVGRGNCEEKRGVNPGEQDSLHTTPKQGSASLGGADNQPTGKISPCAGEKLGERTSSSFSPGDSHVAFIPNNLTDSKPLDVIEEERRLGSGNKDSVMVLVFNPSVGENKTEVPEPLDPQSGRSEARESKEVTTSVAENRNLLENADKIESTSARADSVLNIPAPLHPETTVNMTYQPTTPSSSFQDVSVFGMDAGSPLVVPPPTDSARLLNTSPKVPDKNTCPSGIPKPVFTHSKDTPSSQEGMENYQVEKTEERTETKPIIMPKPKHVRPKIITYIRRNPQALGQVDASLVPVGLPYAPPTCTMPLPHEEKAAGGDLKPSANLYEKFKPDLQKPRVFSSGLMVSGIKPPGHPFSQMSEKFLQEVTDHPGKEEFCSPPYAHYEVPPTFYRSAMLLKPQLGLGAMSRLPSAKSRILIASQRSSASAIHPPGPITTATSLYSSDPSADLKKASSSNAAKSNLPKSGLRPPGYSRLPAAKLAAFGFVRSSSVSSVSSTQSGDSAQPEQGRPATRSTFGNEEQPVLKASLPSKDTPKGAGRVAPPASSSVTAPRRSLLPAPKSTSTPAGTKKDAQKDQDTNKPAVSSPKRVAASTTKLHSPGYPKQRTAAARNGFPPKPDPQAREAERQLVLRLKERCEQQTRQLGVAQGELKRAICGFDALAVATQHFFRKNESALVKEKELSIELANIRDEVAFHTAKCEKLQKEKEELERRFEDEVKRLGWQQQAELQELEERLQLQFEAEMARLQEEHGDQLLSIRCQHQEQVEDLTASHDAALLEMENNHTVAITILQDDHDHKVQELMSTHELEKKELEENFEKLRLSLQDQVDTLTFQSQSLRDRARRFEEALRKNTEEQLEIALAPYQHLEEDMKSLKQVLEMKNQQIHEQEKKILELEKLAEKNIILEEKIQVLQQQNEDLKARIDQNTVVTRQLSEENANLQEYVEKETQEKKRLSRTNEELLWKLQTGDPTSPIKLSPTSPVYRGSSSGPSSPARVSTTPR
V589I was tested, and the “effect of a mutation on the interaction” value was “with no effect”.

Variants of: B6
Details: with reep6_human REEP6, Q96HR9
reep6_human REEP6, Q96HR9, sequence (Q96HR9 whole entry): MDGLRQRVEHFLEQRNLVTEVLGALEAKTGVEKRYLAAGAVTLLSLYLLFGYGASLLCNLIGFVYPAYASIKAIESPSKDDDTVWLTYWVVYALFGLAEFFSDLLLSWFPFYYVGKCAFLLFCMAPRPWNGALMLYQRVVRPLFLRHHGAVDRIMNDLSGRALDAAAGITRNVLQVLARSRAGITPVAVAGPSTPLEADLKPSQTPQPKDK
In the case of R314C, the “effect of a mutation on the interaction” value is reported as “with no effect”. For R334C, the “effect of a mutation on the interaction” value was “with no effect”.

Variants of: B6
Details: with ar6p1_human ARL6IP1, Q15041
ar6p1_human ARL6IP1, Q15041, sequence (Q15041 whole entry): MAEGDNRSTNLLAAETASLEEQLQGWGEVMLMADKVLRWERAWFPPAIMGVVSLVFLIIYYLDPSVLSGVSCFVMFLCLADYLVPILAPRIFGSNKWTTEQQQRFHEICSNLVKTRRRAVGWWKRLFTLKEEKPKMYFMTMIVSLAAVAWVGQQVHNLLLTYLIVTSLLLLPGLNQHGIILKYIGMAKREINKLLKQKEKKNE
For R314C, the “effect of a mutation on the interaction” value was “with no effect”. In the case of R334C, the “effect of a mutation on the interaction” value is reported as “with no effect”.

Variants of: B7
Details: with tnr12_human TNFRSF12A
With T181M the “effect of a mutation on the interaction” value was “with no effect”.

Variants of: B7
Details: with ada33_human ADAM33, Q9BZ11
ada33_human ADAM33, Q9BZ11, sequence (Q9BZ11 whole entry): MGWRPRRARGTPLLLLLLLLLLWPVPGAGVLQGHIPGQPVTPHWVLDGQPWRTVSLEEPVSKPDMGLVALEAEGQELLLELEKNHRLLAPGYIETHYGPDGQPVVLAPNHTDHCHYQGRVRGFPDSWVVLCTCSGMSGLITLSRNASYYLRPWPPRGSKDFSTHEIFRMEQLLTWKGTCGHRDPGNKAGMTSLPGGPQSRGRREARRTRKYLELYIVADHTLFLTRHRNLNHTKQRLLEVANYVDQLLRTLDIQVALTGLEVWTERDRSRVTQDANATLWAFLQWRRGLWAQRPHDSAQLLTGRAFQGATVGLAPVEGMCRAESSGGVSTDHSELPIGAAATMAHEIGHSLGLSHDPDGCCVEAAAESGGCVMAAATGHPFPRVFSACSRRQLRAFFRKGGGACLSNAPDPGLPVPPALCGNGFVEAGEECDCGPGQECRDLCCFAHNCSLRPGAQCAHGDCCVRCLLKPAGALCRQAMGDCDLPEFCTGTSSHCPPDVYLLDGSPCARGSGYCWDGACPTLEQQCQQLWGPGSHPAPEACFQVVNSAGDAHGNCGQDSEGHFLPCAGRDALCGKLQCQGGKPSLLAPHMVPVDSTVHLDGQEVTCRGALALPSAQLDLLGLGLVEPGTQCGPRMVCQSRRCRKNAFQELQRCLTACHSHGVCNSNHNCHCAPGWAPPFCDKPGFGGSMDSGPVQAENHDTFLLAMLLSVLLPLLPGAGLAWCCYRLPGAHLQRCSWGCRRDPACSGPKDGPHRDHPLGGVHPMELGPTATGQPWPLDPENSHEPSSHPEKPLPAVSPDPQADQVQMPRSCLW
For T181M, the “effect of a mutation on the interaction” value was “with no effect”.

Variants of: B7
Details: with ccl4_human CCL4, P13236
ccl4_human CCL4, P13236, sequence (P13236 whole entry): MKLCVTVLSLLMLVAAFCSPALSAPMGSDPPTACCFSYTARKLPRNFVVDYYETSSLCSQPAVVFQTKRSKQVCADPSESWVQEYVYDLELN
For T181M, the “effect of a mutation on the interaction” value was “with no effect”.

Variants of: B8
Details: with hmgb2_human HMGB2, P26583
V265I was tested, and the “effect of a mutation on the interaction” value was “with no effect”. In the case of E103D, the “effect of a mutation on the interaction” value is reported as “with no effect”.

Variants of: B8
Details: with hmgb2_human HMGB2, P26583
Remark: another data set of the same source
In the case of V265I, the “effect of a mutation on the interaction” value is reported as “with no effect”.

Variants of: B9
Details: with dab1_human DAB1, O75553
With L42P the “effect of a mutation on the interaction” value was “with no effect”.
